The text below walks through data of EP4647441A1 (dated 2025).

Experiment [1] deals with HLA-A*11:01 loaded with KRAS-G12D peptide … (human). Put plainly: cell-based or functional assay.
Experiment [2] has as its target HLA-A*11:01 loaded with KRAS-G12V peptide … (human). Put plainly: cell-based or functional assay.
The target in experiment [3] is T1, KRAS G12S peptide on HLA-A*11:01 (human).
T1 peptide: VVVGASGVGK
The experiment can be described thus: killing.

The target in experiment [4] is T2, KRAS G12A peptide on HLA-A*11:01 (human).
T2 peptide: VVVGAAGVGK
The experiment can be described thus: killing.

Experiment [5] has as its target T3, KRAS G12C peptide on HLA-A*11:01 (human).
T3 peptide: VVVGACGVGK
Put plainly: killing.

For experiment [6], the target named is T4, KRAS G12V peptide on HLA-A*11:01 (human).
T4 peptide: VVVGAVGVGK
The experiment can be described thus: CD69 by flow cytometry; TCR1-transduced Jurkat cells with K562-A*11:01 loaded with peptide at 10^-11 to 10^-6 M; full-length, on cells.

Experiment [7] has as its target T5, KRAS G12D peptide on HLA-A*11:01 (human).
T5 peptide: VVVGADGVGK
Described as above.

B1: HLA-A*11:01/KRAS G12V-specific TCR1 (TCR)
TCR alpha: KQEVTQIPAALSVPEGENLVLNCSFTDSAIYNLQWFRQDPGKGLTSLLLIQSSQREQTSGRLNASLDKSSGRSTLYIAASQPGDSATYLCAVNSYSGAGSYQLTFGKGTKLSVIPNIQNPDPAVYQLRDSKSSDKSVCLFTDFDSQTNVSQSKDSDVYITDKTVLDMRSMDFKSNSAVAWSNKSDFACANAFNNSIIPEDTFFPSPESSCDVKLVEKSFETDTNLNFQNLSVIGFRILLLKVAGFNLLMTLRLWSS
TCR beta: EPEVTQTPSHQVTQMGQEVILRCVPISNHLYFYWYRQILGQKVEFLVSFYNNEISEKSEIFDDQFSVERPDGSNFTLKIRSTKLEDSAMYFCASRGGGEQYFGPGTRLTVTEDLKNVFPPEVAVFEPSEAEISHTQKATLVCLATGFYPDHVELSWWVNGKEVHSGVSTDPQPLKEQPALNDSRYCLSSRLRVSATFWQNPRNHFRCQVQFYGLSENDEWTQDRAKPVTQIVSAEAWGRADCGFTSESYQQGVLSATILYEILLGKATLYAVLVSALVLMAMVKRKDSRG
Take B1: the EC50 of CD69 expression of TCR-transduced cells after co-incubation with target cells loaded with graded peptide concentrations was 77 nM in experiment [1] and 45 nM in experiment [2].

B2: TCR1 (TCR, V domains shown)
Valpha: KQEVTQIPAALSVPEGENLVLNCSFTDSAIYNLQWFRQDPGKGLTSLLLIQSSQREQTSGRLNASLDKSSGRSTLYIAASQPGDSATYLCAVNSYSGAGSYQLTFGKGTKLSVIP
Vbeta: EPEVTQTPSHQVTQMGQEVILRCVPISNHLYFYWYRQILGQKVEFLVSFYNNEISEKSEIFDDQFSVERPDGSNFTLKIRSTKLEDSAMYFCASRGGGEQYFGPGTRLTVT
For the molecule B2, the binding result in experiment [3], in experiment [4] and in experiment [5] was “recognises” in each case. For the same molecule, the EC50 of peptide was around 45 nM in experiment [6] and around 77 nM in experiment [7].
